Results from US9081017.

Target: TNFR2 (human, endogenous in kidney tissue and cultured EC) (human) (UniProt P20333)
Experiment: cell-based or functional assay

Chain of TNFR2 (human, endogenous in kidney tissue and cultured EC) (human) (P20333 23-461): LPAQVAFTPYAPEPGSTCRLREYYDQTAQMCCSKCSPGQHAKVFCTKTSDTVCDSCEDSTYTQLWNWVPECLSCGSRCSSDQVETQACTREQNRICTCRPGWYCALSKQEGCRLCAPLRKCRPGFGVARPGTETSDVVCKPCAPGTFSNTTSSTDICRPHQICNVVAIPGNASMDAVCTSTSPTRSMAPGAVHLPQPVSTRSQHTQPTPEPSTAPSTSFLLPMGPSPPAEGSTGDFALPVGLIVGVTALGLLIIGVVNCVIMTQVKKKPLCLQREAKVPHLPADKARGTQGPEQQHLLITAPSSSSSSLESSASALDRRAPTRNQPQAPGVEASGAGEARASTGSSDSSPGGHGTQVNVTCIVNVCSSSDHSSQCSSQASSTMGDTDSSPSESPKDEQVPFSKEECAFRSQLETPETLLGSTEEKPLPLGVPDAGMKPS

- Proliferative index (PI), percentage of PCNA-positive tubular cell nuclei, human kidney organ culture: 50%
Substance: R2-TNF (TNF mutein D143N, A145R) (from UniProt P01375 77-233) (ligand)
